In patent US20060062761A1 one finds IC50 data, which are given here for one substance.

The test deals with HLA-DR DRB1*0701 on fixed MOU (MANN) cells (human). The test is described as follows: competition.

Broadly, the IC50 is the concentration that inhibits the measured activity by half. Consider “Tetanus toxin 828-840 (from UniProt P04958 828-840)”, for which the IC50 was found to be 7 µM.
